Results on 23 molecules are retold here after patent US20220402985A1.

B1: huNRG1(S177-Q237)(2E4)::GG::huFcSEFL2 (Pb) (Fc fusion)
chain: SHLVKCGESDKSFCVNGGECFMVKRPSNPSRYLCKCPNEFTGDRCQKVFLASFYKAEELYQGGDKTHTCPPCPAPELLGGPSVFLFPPKPKDTLMISRTPEVTCVVVDVSHEDPEVKFNWYVDGVEVHNAKTKPCEEQYGSTYRCVSVLTVLHQDWLNGKEYKCKVSNKALPAPIEKTISKAKGQPREPQVYTLPPSREEMTKNQVSLTCLVKGFYPSDIAVEWESNGQPENNYKTTPPVLDSDGSFFLYSKLTVDKSRWQQGNVFSCSVMHEALHNHYTQKSLSLSPGK
B2: huNRG1(S177-Q237)(3F2)::GG::huFcSEFL2 (Pb) (Fc fusion)
chain: B1 chain with D10H, V23I, K24E, R25G, K47D, V48D, L50M
B3: huNRG1(S177-Q237)(3B8)::GG::huFcSEFL2 (Pb) (Fc fusion)
chain: B1 chain with S9R, K24E, P26S, N28I, K47D, V48F
B4: huNRG1(S177-Q237)(2G3)::GG::huFcSEFL2 (Pb) (Fc fusion)
chain: B1 chain with S9R, D10Q, F21Y, K24E, R25D, P26L, N28I, L50M
B5: huNRG1(S177-Q237)(3G9)::GG::huFcSEFL2 (Pb) (Fc fusion)
chain: B1 chain with D10H, K24E, R25D, P26L, Y32F, V48D, L50M
B6: huNRG1(S177-Q237)(3H5)::GG::huFcSEFL2 (Pb) (Fc fusion)
chain: B1 chain with S9R, D10H, F21Y, M22V, K24E, N28I, Y32F, V48D
B7: huNRG1(S177-Q237)(wt)::GG::huFcSEFL2 (Pb) (Fc fusion)
chain: B1 chain with G7A, S9K, D10E, S12T, R25D, P26L, K47N, V48Y, F49V, L50M
B8: huNRG1(S177-Q237)()200E_KDF)::GG::huFcSEFL2 (Pb) (Fc fusion)
chain: B1 chain with G7A, S9K, D10E, S12T, K24E, R25D, P26L, V48D, L50M
B9: huNRG1(S177-Q237)(3H8)::GG::huFcSEFL2 (Pb) (Fc fusion)
chain: B1 chain with S9K, D10H, F21Y, K24E, R25G, P26S, N28I, K47E, V48D, L50M
B10: huNRG1(S177-Q237)(2F2)::GG::huFcSEFL2 (Pb) (Fc fusion)
chain: B1 chain with G7A, D10E, S12T, F21Y, V23I, K24E, R25H, Y32F, K47N, L50M
B11: huNRG1(S177-Q237)(3D6)::GG::huFcSEFL2 (Pb) (Fc fusion)
chain: B1 chain with M22V, V23I, K24E, R25G, P26S, N28I, Y32F, K47D, V48F, L50M
B12: huNRG1(S177-Q237)(3E9)::GG::huFcSEFL2 (Pb) (Fc fusion)
chain: B1 chain with G7A, S9N, D10H, S12T, M22V, V23I, K24E, R25G, P26S, K47D
B13: huNRG1(S177-Q237)(3D8)::GG::huFcSEFL2 (Pb) (Fc fusion)
chain: B1 chain with S9K, S12T, K24E, R25D, P26L, N28I, Y32F, K47D, V48F, L50M
B14: huNRG1(S177-F229)(NRGE1C)::1KmodT482V, M493L)::huFcSEFL2 (Pb) (Fc fusion)
chain: SHLVKCGEKHKSFCVNGGECFMIEGPSNPSRYLCKCPNEFTGDRCQEDFMASFGSGSATGGSGSVASSGSGSATHLDKTHTCPPCPAPELLGGPSVFLFPPKPKDTLMISRTPEVTCVVVDVSHEDPEVKFNWYVDGVEVHNAKTKPCEEQYGSTYRCVSVLTVLHQDWLNGKEYKCKVSNKALPAPIEKTISKAKGQPREPQVYTLPPSREEMTKNQVSLTCLVKGFYPSDIAVEWESNGQPENNYKTTPPVLDSDGSFFLYSKLTVDKSRWQQGNVFSCSVMHEALHNHYTQKSLSLSPGK
B15: huNRG1(S177-Q237)(2G4)::GG::huFcSEFL2 (Pb) (Fc fusion)
chain: SHLVKCAENEKTFCVNGGECFVVEGLSIPSRYLCKCPNEFTGDRCQDVFMASFYKAEELYQGGDKTHTCPPCPAPELLGGPSVFLFPPKPKDTLMISRTPEVTCVVVDVSHEDPEVKFNWYVDGVEVHNAKTKPCEEQYGSTYRCVSVLTVLHQDWLNGKEYKCKVSNKALPAPIEKTISKAKGQPREPQVYTLPPSREEMTKNQVSLTCLVKGFYPSDIAVEWESNGQPENNYKTTPPVLDSDGSFFLYSKLTVDKSRWQQGNVFSCSVMHEALHNHYTQKSLSLSPGK
B16: huNRG1(S177-Q237)(3E6)::GG::huFcSEFL2 (Pb) (Fc fusion)
chain: B15 chain with N9K, E10H, T12S, F21Y, V23I, L26S, Y32F, D47K, V48D
B17: huNRG1(S177-Q237)(v80)::GG::huFcSEFL2 (Pb) (Fc fusion)
chain: B15 chain with N9S, E10H, T12S, V23I, L26S, D47K, V48D, F49V
B18: huNRG1(S177-Q237)(_FVIEDPSI)::GG::huFcSEFL2 (Pb) (Fc fusion)
chain: B15 chain with N9K, V23I, G25D, L26P, D47N, V48Y, F49V
B19: huNRG1(S177-Q237)(2H7)::GG::huFcSEFL2 (Pb) (Fc fusion)
chain: B15 chain with A7G, N9K, T12S, F21Y, G25D, Y32F, D47K, F49V
B20: huNRG1(S177-Q237)(3G3)::GG::huFcSEFL2 (Pb) (Fc fusion)
chain: B15 chain with A7G, N9R, V22M, V23I, G25H, Y32F, D47E, V48D
B21: huNRG1(S177-Q237)(3A7)::GG::huFcSEFL2 (Pb) (Fc fusion)
chain: B15 chain with N9K, T12S, V23I, L26S, Y32F, D47K, F49V
B22: huNRG1(S177-Q237)(_200E)::GG::huFcSEFL2 (Pb) (Fc fusion)
chain: B15 chain with N9K, V22M, G25D, I28N, D47N, V48Y, F49V
B23: huNRG1(S177-Q237)(v80.3)::GG::huFcSEFL2 (Pb) (Fc fusion)
chain: B15 chain with N9R, E10H, T12S, V23I, L26S, Q46E, D47K, V48D, F49V

Where a chain is given by its changes, count along the chain named. Names may count otherwise. “And” between values parts separate entries of the source, which are not always exact repeats. Equal values may be shown once. Some results are limits rather than exact numbers.

For the first assay, the target named is ErbB3 on rat Schwann cells (rat) (UniProt Q62799). The assay is described as follows: cell-based or functional assay.
ErbB3 on rat Schwann cells (rat), sequence (Q62799 20-1339): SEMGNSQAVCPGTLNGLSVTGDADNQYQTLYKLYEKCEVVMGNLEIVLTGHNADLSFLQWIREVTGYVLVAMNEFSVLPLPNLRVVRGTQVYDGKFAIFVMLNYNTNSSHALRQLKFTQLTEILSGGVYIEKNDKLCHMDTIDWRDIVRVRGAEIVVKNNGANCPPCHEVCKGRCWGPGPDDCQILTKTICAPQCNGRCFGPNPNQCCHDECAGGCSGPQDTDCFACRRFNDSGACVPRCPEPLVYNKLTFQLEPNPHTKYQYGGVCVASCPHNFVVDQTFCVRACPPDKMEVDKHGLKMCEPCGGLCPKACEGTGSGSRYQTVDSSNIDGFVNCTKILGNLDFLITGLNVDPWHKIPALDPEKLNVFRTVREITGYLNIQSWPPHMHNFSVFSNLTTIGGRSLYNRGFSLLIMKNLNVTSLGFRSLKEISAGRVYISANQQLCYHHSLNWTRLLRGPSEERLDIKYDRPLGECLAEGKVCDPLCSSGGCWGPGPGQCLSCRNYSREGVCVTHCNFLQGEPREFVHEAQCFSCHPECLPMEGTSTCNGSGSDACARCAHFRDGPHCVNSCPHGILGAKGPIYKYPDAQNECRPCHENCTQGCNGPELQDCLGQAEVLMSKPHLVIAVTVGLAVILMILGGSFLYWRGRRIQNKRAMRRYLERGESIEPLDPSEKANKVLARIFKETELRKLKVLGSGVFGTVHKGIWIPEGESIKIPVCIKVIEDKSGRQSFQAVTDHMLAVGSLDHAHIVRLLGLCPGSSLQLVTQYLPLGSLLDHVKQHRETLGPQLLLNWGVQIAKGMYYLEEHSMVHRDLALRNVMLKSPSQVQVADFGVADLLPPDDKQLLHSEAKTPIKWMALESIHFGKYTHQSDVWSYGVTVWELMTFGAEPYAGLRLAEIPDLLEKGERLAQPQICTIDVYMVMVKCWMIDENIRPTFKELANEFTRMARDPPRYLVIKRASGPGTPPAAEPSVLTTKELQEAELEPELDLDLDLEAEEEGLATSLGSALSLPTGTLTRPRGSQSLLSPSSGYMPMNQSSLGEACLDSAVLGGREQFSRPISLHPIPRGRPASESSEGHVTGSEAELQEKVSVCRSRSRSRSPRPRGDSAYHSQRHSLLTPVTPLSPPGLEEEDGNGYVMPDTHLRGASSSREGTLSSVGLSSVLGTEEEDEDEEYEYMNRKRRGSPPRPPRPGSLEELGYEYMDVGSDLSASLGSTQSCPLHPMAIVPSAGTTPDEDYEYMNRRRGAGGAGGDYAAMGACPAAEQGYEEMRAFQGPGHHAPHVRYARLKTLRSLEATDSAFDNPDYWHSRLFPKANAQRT
Take B1: the Schwann cells (SC) (ErbB3) Avg EC50 is 61.5 nM.

Consider B2, for which the Schwann cells (SC) (ErbB3) Avg EC50 was more than 10000 nM.

Molecule B3 showed a Schwann cells (SC) (ErbB3) Avg EC50 of 3000 nM.

Take B4: the Schwann cells (SC) (ErbB3) Avg EC50 was 60.8 nM.

B5 displayed a Schwann cells (SC) (ErbB3) Avg EC50 of more than 10000 nM.

In the case of B6, the Schwann cells (SC) (ErbB3) Avg EC50 is more than 10000 nM.

Regarding B7, the Schwann cells (SC) (ErbB3) Avg EC50 is 0.112 nM and 0.15 nM.

Molecule B8 gave a Schwann cells (SC) (ErbB3) Avg EC50 of 121 nM.

B9: the Schwann cells (SC) (ErbB3) Avg EC50 was more than 10000 nM.

With B10, the Schwann cells (SC) (ErbB3) Avg EC50 turned out to be 202 nM.

As to B11, the Schwann cells (SC) (ErbB3) Avg EC50 was more than 10000 nM.

For B12, the Schwann cells (SC) (ErbB3) Avg EC50 is more than 3000 nM.

As for B13, the Schwann cells (SC) (ErbB3) Avg EC50 was more than 3000 nM.

Consider B14, for which the Schwann cells (SC) (ErbB3) Avg EC50 is more than 10000 nM.

Turning to B15, the Schwann cells (SC) (ErbB3) Avg EC50 came out at 1000 nM.

B16: the Schwann cells (SC) (ErbB3) Avg EC50 was more than 10000 nM.

Regarding B17, the Schwann cells (SC) (ErbB3) Avg EC50 is 6.65 nM.

B18 displayed a Schwann cells (SC) (ErbB3) Avg EC50 of 4.27 nM.

Turning to B19, the Schwann cells (SC) (ErbB3) Avg EC50 was found to be 110 nM.

B20 displayed a Schwann cells (SC) (ErbB3) Avg EC50 of more than 10000 nM.

Turning to B21, the Schwann cells (SC) (ErbB3) Avg EC50 was 46.5 nM.

In turn, B22 gave a Schwann cells (SC) (ErbB3) Avg EC50 of 4.82 nM.

For B23, the Schwann cells (SC) (ErbB3) Avg EC50 was found to be 3000 nM.

The target of the next assay is ErbB4 on neonatal rat cardiomyocytes (rat) (UniProt Q62956). The assay is described as follows: cell-based or functional assay.
ErbB4 on neonatal rat cardiomyocytes (rat), sequence (Q62956 26-1308): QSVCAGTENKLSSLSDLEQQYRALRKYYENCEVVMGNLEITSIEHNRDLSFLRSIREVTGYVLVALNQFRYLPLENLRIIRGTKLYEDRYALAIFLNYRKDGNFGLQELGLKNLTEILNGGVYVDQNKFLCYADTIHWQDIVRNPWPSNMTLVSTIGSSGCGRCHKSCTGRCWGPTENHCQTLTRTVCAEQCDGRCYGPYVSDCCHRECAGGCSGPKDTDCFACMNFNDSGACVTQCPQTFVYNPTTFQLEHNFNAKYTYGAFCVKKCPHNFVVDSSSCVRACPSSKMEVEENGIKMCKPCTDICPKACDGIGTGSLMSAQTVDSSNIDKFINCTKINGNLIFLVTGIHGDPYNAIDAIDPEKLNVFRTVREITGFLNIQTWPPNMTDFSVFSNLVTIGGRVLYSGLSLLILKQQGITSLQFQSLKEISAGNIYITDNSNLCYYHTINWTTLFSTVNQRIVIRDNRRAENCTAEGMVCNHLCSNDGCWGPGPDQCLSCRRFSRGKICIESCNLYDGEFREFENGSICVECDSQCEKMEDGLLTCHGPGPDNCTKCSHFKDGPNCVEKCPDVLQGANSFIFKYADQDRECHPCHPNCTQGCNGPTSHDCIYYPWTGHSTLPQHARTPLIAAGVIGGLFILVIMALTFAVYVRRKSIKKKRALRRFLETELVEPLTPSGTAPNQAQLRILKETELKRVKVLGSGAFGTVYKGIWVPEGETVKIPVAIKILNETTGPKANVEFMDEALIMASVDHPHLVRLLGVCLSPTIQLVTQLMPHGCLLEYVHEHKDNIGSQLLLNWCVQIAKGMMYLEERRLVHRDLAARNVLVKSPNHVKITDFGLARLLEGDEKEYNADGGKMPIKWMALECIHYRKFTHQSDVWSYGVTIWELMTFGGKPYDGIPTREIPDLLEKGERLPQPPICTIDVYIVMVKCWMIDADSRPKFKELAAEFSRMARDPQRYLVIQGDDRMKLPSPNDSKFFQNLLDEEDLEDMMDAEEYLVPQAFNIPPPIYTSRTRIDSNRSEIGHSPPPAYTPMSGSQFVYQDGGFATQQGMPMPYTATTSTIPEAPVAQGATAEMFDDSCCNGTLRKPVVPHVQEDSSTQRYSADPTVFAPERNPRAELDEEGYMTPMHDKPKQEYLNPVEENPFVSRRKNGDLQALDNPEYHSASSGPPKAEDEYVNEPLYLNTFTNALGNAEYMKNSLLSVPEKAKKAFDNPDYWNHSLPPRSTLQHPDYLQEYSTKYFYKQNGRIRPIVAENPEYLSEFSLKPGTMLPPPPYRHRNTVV
Regarding B1, the Cardiomyocyte (CM) (ErbB4) Avg EC50 was found to be 429 pM and the Selectivity SC/CM came to 143.

On to B2, for which the CM % Agonism AVG came to 70%, the Cardiomyocyte (CM) (ErbB4) Avg EC50 was 738 pM and the Selectivity SC/CM was more than 10000.

B3 had a CM % Agonism AVG of less than 50%, a Cardiomyocyte (CM) (ErbB4) Avg EC50 of 1400 pM and a Selectivity SC/CM of 2150.

B4: the Cardiomyocyte (CM) (ErbB4) Avg EC50 stood at 208 pM and the Selectivity SC/CM worked out at 292.

B5 yielded a Cardiomyocyte (CM) (ErbB4) Avg EC50 of 581 pM and a Selectivity SC/CM of more than 10000.

B6 yielded a Cardiomyocyte (CM) (ErbB4) Avg EC50 of 1270 pM and a Selectivity SC/CM of more than 7800.

For B7, the Cardiomyocyte (CM) (ErbB4) Avg EC50 is 275 pM and 600 pM; the Selectivity SC/CM was 0.4 and 0.3.

In the case of B8, the Cardiomyocyte (CM) (ErbB4) Avg EC50 was 2000 pM and the Selectivity SC/CM came to 60.

For B9, the Cardiomyocyte (CM) (ErbB4) Avg EC50 was determined as 276 pM and the Selectivity SC/CM is more than 10000.

The molecule B10 gave a Cardiomyocyte (CM) (ErbB4) Avg EC50 of 244 pM and a Selectivity SC/CM of 826.

On to B11, for which the CM % Agonism AVG is less than 50%, the Cardiomyocyte (CM) (ErbB4) Avg EC50 was 2600 pM and the Selectivity SC/CM is more than 3800.

The molecule B12 came in with a CM % Agonism AVG of 70%, a Cardiomyocyte (CM) (ErbB4) Avg EC50 of 2680 pM and a Selectivity SC/CM of more than 8500.

B13 gave a CM % Agonism AVG of less than 50%, a Cardiomyocyte (CM) (ErbB4) Avg EC50 of 510 pM and a Selectivity SC/CM of more than 5800.

Consider B14, for which the CM % Agonism AVG was 75.8%, the Cardiomyocyte (CM) (ErbB4) Avg EC50 was determined as 400 pM and the Selectivity SC/CM was more than 10000.

As to B15, the CM % Agonism AVG is less than 50%, the Cardiomyocyte (CM) (ErbB4) Avg EC50 came to 2420 pM and the Selectivity SC/CM turned out to be 414.

With B16, the Cardiomyocyte (CM) (ErbB4) Avg EC50 turned out to be 350 pM and the Selectivity SC/CM is more than 10000.

Molecule B17 yielded a Cardiomyocyte (CM) (ErbB4) Avg EC50 of 998 pM and a Selectivity SC/CM of 7.

On to B18, for which the Cardiomyocyte (CM) (ErbB4) Avg EC50 amounted to 177 pM and the Selectivity SC/CM turned out to be 24.

Take B19: the CM % Agonism AVG is less than 50%, the Cardiomyocyte (CM) (ErbB4) Avg EC50 was 300 pM and the Selectivity SC/CM turned out to be 368.

Molecule B20 returned a CM % Agonism AVG of 70%, a Cardiomyocyte (CM) (ErbB4) Avg EC50 of 1840 pM and a Selectivity SC/CM of more than 5400.

Consider B21, for which the CM % Agonism AVG is less than 50%, the Cardiomyocyte (CM) (ErbB4) Avg EC50 was 366 pM and the Selectivity SC/CM came to 127.

With B22, the Cardiomyocyte (CM) (ErbB4) Avg EC50 came out at 452 pM and the Selectivity SC/CM is 11.

The molecule B23 gave a Cardiomyocyte (CM) (ErbB4) Avg EC50 of 33600 pM and a Selectivity SC/CM of 89.
